Measurements from patent publication US8936925B2, “Reconstitution of 5-enolpyruvylshikimate-3-phosphate synthase activity by fragment complementation” (priority 2004, dated 2015).

These molecules were tested on aroA gene-mutant E. coli strain AB2829 (assay: In vivo complementation: growth on solid M63 restrictive medium). Conditions: C-terminal fragment alone.
Format: cell-based
Parameters: key: −: failed to grow; +: able to grow
From the text: The pKU2100 plasmid constructed as described above and corresponding pACYC1184 plasmid were introduced separately or together into the strain AB2829 deficient in E. coli aroA gene. Then, the strain was streaked on solid M63 restrictive medium and cultured overnight to determine the growth.
In order to test if EPSPS achieves fragment complementation after in vivo expression, genes encoding EPSPS N-terminal peptides were constructed into pACYC184, and genes encoding EPSPS C-terminal peptides were constructed into pBR322 (see the section Materials and Methods for the detailed construction method). Afterwards, these plasmids were introduced into aroA gene-mutant E. coli strain AB2829. EPSPS activity of the protein fragments encoded by these genes was determined by the growth of the strains on M63 restrictive medium.
The pACYC184 and pBR322 plasmids are able to be expressed in the same bacterial cell since they have replicons p15A and ColE1 respectively. In this regard, a pACYC184 plasmid was co-introduced into aroA gene-mutant E. coli strain AB2829 together with a corresponding pKU2100 plasmid, wherein the N-terminal peptide encoded by the pACYC184 plasmid and C-terminal peptide encoded by the pKU2100 plasmid are the two fragments divided at the same site from EPSPS. The resulting strains are streaked on M63 restrictive medium, and cultured at 37° C.
The pBR322 plasmids constructed in section 3.5 a and their relevant pACYC1184 plasmids constructed in section 3.5 b were introduced respectively or together into E. coli strain AB2829 deficient in aroA gene. Then the strains were streaked on solid M63 restrictive medium and cultured overnight to test the growth.

Molecule	complementation condition, C-terminal
C241: E. coli EPSPS C-terminal fragment, residue 241 to C-terminus (protein, UniProt P0A6D3 241-427, looked up, fragment) GDASSASYFLAAAAIKGGTVKVTGIGRNSMQGDIRFADVLEKMGATICWGDDYISCTRGELNAIDMDMNHIPDAAMTIATAALFAKGTTTLRNIYNWRVKETDRLFAMATELRKVGAEVEEGHDYIRITPPEKLNFAEIATYNDHRMAMCFSLVALSDTPVTILDPKCTAKTFPDYFEQLARISQAA	−
C228: E. coli EPSPS C-terminal fragment, residue 228 to C-terminus (protein, UniProt P0A6D3 228-427, looked up, fragment) GQSYQSPGTYLVEGDASSASYFLAAAAIKGGTVKVTGIGRNSMQGDIRFADVLEKMGATICWGDDYISCTRGELNAIDMDMNHIPDAAMTIATAALFAKGTTTLRNIYNWRVKETDRLFAMATELRKVGAEVEEGHDYIRITPPEKLNFAEIATYNDHRMAMCFSLVALSDTPVTILDPKCTAKTFPDYFEQLARISQAA	−
C225: E. coli EPSPS C-terminal fragment, residue 225 to C-terminus (protein, UniProt P0A6D3 225-427, looked up, fragment) VKGGQSYQSPGTYLVEGDASSASYFLAAAAIKGGTVKVTGIGRNSMQGDIRFADVLEKMGATICWGDDYISCTRGELNAIDMDMNHIPDAAMTIATAALFAKGTTTLRNIYNWRVKETDRLFAMATELRKVGAEVEEGHDYIRITPPEKLNFAEIATYNDHRMAMCFSLVALSDTPVTILDPKCTAKTFPDYFEQLARISQAA	−
C235: E. coli EPSPS C-terminal fragment, residue 235 to C-terminus (protein, UniProt P0A6D3 235-427, looked up, fragment) GTYLVEGDASSASYFLAAAAIKGGTVKVTGIGRNSMQGDIRFADVLEKMGATICWGDDYISCTRGELNAIDMDMNHIPDAAMTIATAALFAKGTTTLRNIYNWRVKETDRLFAMATELRKVGAEVEEGHDYIRITPPEKLNFAEIATYNDHRMAMCFSLVALSDTPVTILDPKCTAKTFPDYFEQLARISQAA	−
C219: E. coli EPSPS C-terminal fragment, residue 219 to C-terminus (protein, UniProt P0A6D3 219-427, looked up, fragment) HYQQFVVKGGQSYQSPGTYLVEGDASSASYFLAAAAIKGGTVKVTGIGRNSMQGDIRFADVLEKMGATICWGDDYISCTRGELNAIDMDMNHIPDAAMTIATAALFAKGTTTLRNIYNWRVKETDRLFAMATELRKVGAEVEEGHDYIRITPPEKLNFAEIATYNDHRMAMCFSLVALSDTPVTILDPKCTAKTFPDYFEQLARISQAA	−
C246: E. coli EPSPS C-terminal fragment, residue 246 to C-terminus (protein, UniProt P0A6D3 246-427, looked up, fragment) ASYFLAAAAIKGGTVKVTGIGRNSMQGDIRFADVLEKMGATICWGDDYISCTRGELNAIDMDMNHIPDAAMTIATAALFAKGTTTLRNIYNWRVKETDRLFAMATELRKVGAEVEEGHDYIRITPPEKLNFAEIATYNDHRMAMCFSLVALSDTPVTILDPKCTAKTFPDYFEQLARISQAA	−
C185: E. coli EPSPS C-terminal fragment, residue 185 to C-terminus (protein, UniProt P0A6D3 185-427, looked up, fragment) EDTVIRIKGDLVSKPYIDITLNLMKTFGVEIENQHYQQFVVKGGQSYQSPGTYLVEGDASSASYFLAAAAIKGGTVKVTGIGRNSMQGDIRFADVLEKMGATICWGDDYISCTRGELNAIDMDMNHIPDAAMTIATAALFAKGTTTLRNIYNWRVKETDRLFAMATELRKVGAEVEEGHDYIRITPPEKLNFAEIATYNDHRMAMCFSLVALSDTPVTILDPKCTAKTFPDYFEQLARISQAA	−
C239: E. coli EPSPS C-terminal fragment, residue 239 to C-terminus (protein, UniProt P0A6D3 239-427, looked up, fragment) VEGDASSASYFLAAAAIKGGTVKVTGIGRNSMQGDIRFADVLEKMGATICWGDDYISCTRGELNAIDMDMNHIPDAAMTIATAALFAKGTTTLRNIYNWRVKETDRLFAMATELRKVGAEVEEGHDYIRITPPEKLNFAEIATYNDHRMAMCFSLVALSDTPVTILDPKCTAKTFPDYFEQLARISQAA	−

Same assay, conditions: N-terminal fragment alone

Molecule	complementation condition, N-terminal
N224: E. coli EPSPS N-terminal fragment, N-terminus to residue 224 (protein, UniProt P0A6D3 1-224, looked up, fragment) MESLTLQPIARVDGTINLPGSKSVSNRALLLAALAHGKTVLTNLLDSDDVRHMLNALTALGVSYTLSADRTRCEIIGNGGPLHAEGALELFLGNAGTAMRPLAAALCLGSNDIVLTGEPRMKERPIGHLVDALRLGGAKITYLEQENYPPLRLQGGFTGGNVDVDGSVSSQFLTALLMTAPLAPEDTVIRIKGDLVSKPYIDITLNLMKTFGVEIENQHYQQFV	−
N240: E. coli EPSPS N-terminal fragment, N-terminus to residue 240 (protein, UniProt P0A6D3 1-240, looked up, fragment) MESLTLQPIARVDGTINLPGSKSVSNRALLLAALAHGKTVLTNLLDSDDVRHMLNALTALGVSYTLSADRTRCEIIGNGGPLHAEGALELFLGNAGTAMRPLAAALCLGSNDIVLTGEPRMKERPIGHLVDALRLGGAKITYLEQENYPPLRLQGGFTGGNVDVDGSVSSQFLTALLMTAPLAPEDTVIRIKGDLVSKPYIDITLNLMKTFGVEIENQHYQQFVVKGGQSYQSPGTYLVE	−
N238: E. coli EPSPS N-terminal fragment, N-terminus to residue 238 (protein, UniProt P0A6D3 1-238, looked up, fragment) MESLTLQPIARVDGTINLPGSKSVSNRALLLAALAHGKTVLTNLLDSDDVRHMLNALTALGVSYTLSADRTRCEIIGNGGPLHAEGALELFLGNAGTAMRPLAAALCLGSNDIVLTGEPRMKERPIGHLVDALRLGGAKITYLEQENYPPLRLQGGFTGGNVDVDGSVSSQFLTALLMTAPLAPEDTVIRIKGDLVSKPYIDITLNLMKTFGVEIENQHYQQFVVKGGQSYQSPGTYL	−
N234: E. coli EPSPS N-terminal fragment, N-terminus to residue 234 (protein, UniProt P0A6D3 1-234, looked up, fragment) MESLTLQPIARVDGTINLPGSKSVSNRALLLAALAHGKTVLTNLLDSDDVRHMLNALTALGVSYTLSADRTRCEIIGNGGPLHAEGALELFLGNAGTAMRPLAAALCLGSNDIVLTGEPRMKERPIGHLVDALRLGGAKITYLEQENYPPLRLQGGFTGGNVDVDGSVSSQFLTALLMTAPLAPEDTVIRIKGDLVSKPYIDITLNLMKTFGVEIENQHYQQFVVKGGQSYQSP	−
N227: E. coli EPSPS N-terminal fragment, N-terminus to residue 227 (protein, UniProt P0A6D3 1-227, looked up, fragment) MESLTLQPIARVDGTINLPGSKSVSNRALLLAALAHGKTVLTNLLDSDDVRHMLNALTALGVSYTLSADRTRCEIIGNGGPLHAEGALELFLGNAGTAMRPLAAALCLGSNDIVLTGEPRMKERPIGHLVDALRLGGAKITYLEQENYPPLRLQGGFTGGNVDVDGSVSSQFLTALLMTAPLAPEDTVIRIKGDLVSKPYIDITLNLMKTFGVEIENQHYQQFVVKG	−
N259: E. coli EPSPS N-terminal fragment, N-terminus to residue 259 (protein, UniProt P0A6D3 1-259, looked up, fragment) MESLTLQPIARVDGTINLPGSKSVSNRALLLAALAHGKTVLTNLLDSDDVRHMLNALTALGVSYTLSADRTRCEIIGNGGPLHAEGALELFLGNAGTAMRPLAAALCLGSNDIVLTGEPRMKERPIGHLVDALRLGGAKITYLEQENYPPLRLQGGFTGGNVDVDGSVSSQFLTALLMTAPLAPEDTVIRIKGDLVSKPYIDITLNLMKTFGVEIENQHYQQFVVKGGQSYQSPGTYLVEGDASSASYFLAAAAIKGGT	−
N245: E. coli EPSPS N-terminal fragment, N-terminus to residue 245 (protein, UniProt P0A6D3 1-245, looked up, fragment) MESLTLQPIARVDGTINLPGSKSVSNRALLLAALAHGKTVLTNLLDSDDVRHMLNALTALGVSYTLSADRTRCEIIGNGGPLHAEGALELFLGNAGTAMRPLAAALCLGSNDIVLTGEPRMKERPIGHLVDALRLGGAKITYLEQENYPPLRLQGGFTGGNVDVDGSVSSQFLTALLMTAPLAPEDTVIRIKGDLVSKPYIDITLNLMKTFGVEIENQHYQQFVVKGGQSYQSPGTYLVEGDASS	−
N218: E. coli EPSPS N-terminal fragment, N-terminus to residue 218 (protein, UniProt P0A6D3 1-218, looked up, fragment) MESLTLQPIARVDGTINLPGSKSVSNRALLLAALAHGKTVLTNLLDSDDVRHMLNALTALGVSYTLSADRTRCEIIGNGGPLHAEGALELFLGNAGTAMRPLAAALCLGSNDIVLTGEPRMKERPIGHLVDALRLGGAKITYLEQENYPPLRLQGGFTGGNVDVDGSVSSQFLTALLMTAPLAPEDTVIRIKGDLVSKPYIDITLNLMKTFGVEIENQ	−
